Test results published in US20220227863A1 (BLUEFIN BIOMEDICINE, published 2022).
Positions count from the first letter of the chain named. Values belong to the binder of their own block, whether it stands above or below them.

Legend:
[1] = molecular target: T1, recombinant cynomolgus monkey ILT3 ectodomain with C-terminal histidine tag (cynomolgus monkey); test: BLI (Octet Red), antibody on Protein A biosensors, recombinant ILT3 in solution
T1 construct: extracellular domain; Non-native signal peptide; expressed in CHO cells
Experimental: (§1) Affinity: The affinity of antibodies to recombinant ILT3 was determined on an Octet Red™ (Pall, ForteBio) instrument. After loading reagents into a 96-well plate, the Octet Red™ with Protein A-conjugated biosensors was programmed as follows: 30 seconds for baseline #1; 45 seconds to immobilize the antibody; 30 seconds for baseline #2; 300 seconds for association of antibody to recombinant ILT3; and 300 seconds for dissociation of recombinant ILT3 from the antibody. In some cases, the antibody affinity was estimated against cynomolgus ILT3 using a flow based method. Briefly, the assay uses 3-5 fold dilutions from 100 nM to 0.1 nM of a stock antibody concentration (100 nM) diluted in flow buffer. […] Acquisition of the MFI (Median Fluorescent Intensity) was performed on a MACSQuant® Flow Cytometers (Miltenyi Biotec).

[2] = molecular target: T2, recombinant human ILT3 ectodomain with C-terminal histidine tag (human, UniProt Q8NHJ6 22-259); test: as above
T2 construct: also called recombinant ILT3; hILT3; not shown: C-terminal histidine tag
T2 sequence (Q8NHJ6 22-259 D223G): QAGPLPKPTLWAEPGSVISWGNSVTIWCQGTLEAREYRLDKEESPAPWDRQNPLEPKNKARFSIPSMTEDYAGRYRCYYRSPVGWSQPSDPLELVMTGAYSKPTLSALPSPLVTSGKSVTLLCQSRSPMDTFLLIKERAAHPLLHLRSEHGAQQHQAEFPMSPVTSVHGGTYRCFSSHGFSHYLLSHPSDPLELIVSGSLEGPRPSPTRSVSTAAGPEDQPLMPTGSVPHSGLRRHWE

[3] = molecular target: T3, cynomolgus ILT3 expressed on HEK293 cells (Macaca fascicularis (cynomolgus monkey)); test: flow cytometry, serial antibody dilutions on live HEK293 cells expressing cynomolgus ILT3, Alexa Fluor 647 anti-human IgG secondary, MFI
T3 construct: whole, on cells; also called Macaca fascicularis ILT3 homologue; macaque ILT3 homologue
Experimental: as §1

B1: 3C4A3_7C5 (antibody, V domains shown)
VH: EVQLLESGGGLVQPGGSLRLSCAASGFTFSSYAMSWVRQAPGKGLEWVSVISGSGGSTYYADSVKGRFTISRDNSKNTLDLQMNSLRAEDTAVYYCAKLGDYYYGMDVWGQGTTVTVSS
VL: not shown
Kd [1]: 56 nM | Kd [2]: 21 nM

B4: 20H6_24C3 (antibody, V domains shown)
VH: QVQLQESGPGLLKPSETLSLTCTVSGGSISPYYWSWIRQPPGKGLEWIGYIYYSGNTNYNPSLQSRLTISVDTSKNQFSLKLSSVTAADTAVYYCARRGYSFGFYYGLDVWGQGTTVTVSS
VL: DIQMTQSPSSLSASVGDRVTITCRASQDISIYLAWYQQKPGKVPNLLIYLASTLQSGVPSRFSGSGSGTDFTLTISSLQPEDVATYYCQKYNSAPWTFGQGTKLEIK
notes: Recombinant antibody from CHO cells
Kd [2]: 1 nM

B5: 7C12_24A6 (antibody, V domains shown)
VH: QVQLQESGPGLVNPSKTLSLTCTVSGGSISSYFWSWIRQPPGKGLEWIGYIYDSGSTNYNPSLKSRVTISVDTSKNHFSLKLSSVTAADTAVYYCARRGGYYGSGSYGGMDVWGQGTTVTVSS
VL: B4 VL with D28G, I31N, N45K, Y49S, L50A
notes: as for B4
Kd [2]: 50 nM

B7: 8C7_24B1 (antibody, V domains shown)
VH: QVQLQESGPGLVKPSETLSLTCTVSGGSISSYYWSWIRQPPGKGLEWIGYIHYSGSTNYNPSLKSRVTISEDTSKNQFSLKLSSVTAADTAVFYCAGRRYYYDSSGYLDYWGQGTLVTVSS
VL: B4 VL with D28G, I31N, N45K, L50A
notes: as for B4
Kd [2]: 60 nM

B9: 14E7_27C1 (antibody, V domains shown)
VH: B4 VH with L12V, P31S, N56S, Q64K, F102Y, F104Y, L108M
VL: B4 VL with I31N, N45K, Y49S, L50P
notes: as for B4
Kd [2]: 75 nM

B10: 5A2_24A1 (antibody, V domains shown)
VH: B5 VH with S31R
VL: B4 VL with D28G, I31N, V43I, N45K, Y49S, L50A, N92D, L104V
notes: as for B4
Kd [2]: 30 nM

B11: 1C4_24B3 (antibody, V domains shown)
VH: B5 VH with S7A, D53N, K64Q, T73M, S106N
VL: B4 VL with V15A, D28G, I31N, N45K, I48M, L50A, T53A, N92D, L104V
notes: Recombinant antibody from CHO cells; also called 1C4_24B4
Kd [2]: 12 nM

B12: 4F4_27D3 (antibody, V domains shown)
VH: B7 VH with Y32H, H52Y, S54N, S56G, N60K, E71V, S83T, F93Y
VL: B4 VL with D28G, I31N, N45K, L50A
notes: as for B4
Kd [2]: 30 nM

B14: 3H3_24B2 (antibody, V domains shown)
VH: B5 VH with V2I, S30R, S56N, S106N
VL: B4 VL with D28G, I31N, N45K, L50A
notes: as for B4
Kd [2]: 40 nM

B15: 3D8D11 (antibody, V domains shown)
VH: B5 VH with N13K, K16E, D53Y, H77Q, Y102S, G103Y, S104G, G105Y, S106G, G108Y
VL: B4 VL with D28G, I31N, N45K, L50A
notes: as for B4
Kd [2]: 170 nM

B18: 17E8_27C5 (antibody, V domains shown)
VH: QVQLVESGGGVVQPGRSLRLSCAASGFTFSNYGMHWVRQAPGKGLEWMAGIWFDGTNKYYIDSVKGRFTISRDNSKNTLYLQMNNLRAEDTAVYYCARDVISMVRGVPFDYWGQGTLVTVSS
VL: DAVVTQESALTTSPGETVTLTCRSSTGAVTTSNYANWVQEKPDHLFTGLIGGINNRAPGVPARFSGSLIGDKAALTITGAQTEDEAIYFCALWYSNHWVFGGGTKLTVLG
notes: as for B4
Kd [2]: 2 nM

Next, values leading:

Kd [2]: 1 nM
B2: 16B10_27D2 (antibody, V domains shown)
VH: QVQLVESGGGVVQPGRSLRLSCAASGFTFNNYGMHWVRQAPGKGLEWVAIIWNDGSNPYYADSVKGRFTISRDNSKNTLYLQMNSLRAEDTAVYYCVRDSSSWFVNYFDYWGQGTLVTVSS
VL: EIVMTQSPATLSVSPGERATLSCRASQSVNRNLAWYQQKPGQAPRLLIYGASTRATGIPASFSGSGSGTEFTLTISSLQSEDFAVYYCQHYNHWPLTFGGGTKVEIK
notes: as for B4

Kd [1]: 27 nM | Kd [2]: 6 nM | EC50 (read off the curve) [3]: ~6 nM
B3: 1E2F12H8_3D2 (antibody, V domains shown)
VH: EVQLLESGGGLVQPGGSLRLSCAASGFTFSSYAMSWVRQAPGKGLEWVSIISGSGGDTYYADSVKGRFTISRDNSKNTLYLQMNSLRAEDTAVYYCAKTDDHGDFFDYWGQGTLVTVSS
VL: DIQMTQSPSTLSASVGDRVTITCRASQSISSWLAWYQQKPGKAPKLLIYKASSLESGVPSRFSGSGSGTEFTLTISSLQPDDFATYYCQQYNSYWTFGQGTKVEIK

Kd [2]: 1 nM
B6: 6H9_27D5 (antibody, V domains shown)
VH: QVELQQSGPGLVKPSETLSLTCTVSGGSISTYFWSWTRQPPGKGLEWIGYTNYRGNTNYNPSLESRVTISVDTSKNQFSLKLSSVTAADTAVYYCARRGGYYGSGNYGGMDVWGQGTTVTVSS
VL: B4 VL with D28G, I31N, N45K, L50A, V83L, N92D
notes: as for B4

Kd [2]: 2 nM
B8: 10A5_24A2 (antibody, V domains shown)
VH: QLQLQESGPGLVNPSKTLSLTCNVSGGSMSNYFWSWIRQPPGKGLEWIGYIYNSGNTNYHPSLQSRVTISVDTSKNLFSLKLTSVTAADTAVYYCARRGGYYGSGNYGGLDVWGHGTTVTVSS
VL: B4 VL with D28G, I31N, N45K, L50A, S65T, N92D, L104V
notes: as for B4

Kd [2]: 2 nM
B13: 5E3-24B4 (antibody, V domains shown)
VH: B7 VH with Y32H, S35N, S56G, L63Q, E71V, F93Y, Y102F
VL: B4 VL with D28G, I31N, V43I, N45K, L50A
notes: as for B4

Kd [1]: 200 nM | Kd [2]: 3 nM
B16: 1E12H10_7A1 (antibody, V domains shown)
VH: B18 VH with A24T, N31S, M48V, G50L, T56G, K58Q, I61A, M83L, N85S, Y95F
VL: B18 VL with S32G, N54K, A57V, K72R

Kd [2]: 1 nM
B17: 11H10_27D4 (antibody, V domains shown)
VH: B18 VH with M34I, M48V, G50V, T56N, I61A, N85S, S102T, M103L
VL: B18 VL with L20V
notes: as for B4

Kd [2]: 3 nM
B19: 17F4_27C6 (antibody, V domains shown)
VH: B18 VH with N31T, M34I, M48V, G50V, T56S, I61A, N85S
VL: B18 VL with A57V, L106V
notes: as for B4

Kd [2]: 10 nM
B20: 8E11B6 (antibody, V domains shown)
VH: QVQLEESGGGVVQPGRSLRLSCAASGFTFSSYGMHWVRQAPGKGLEWVAVIWYDGSNTYYADSVKGRFTISRDNSKNTLYLQMNSLRAEDTAVYYCARERETFFYVMDAWGQGASVTVSS
VL: DIQMTQSPSTLSASVGDRVTITCRASQSISSWLAWYQQKPGKAPKLLIYKASSLESGVPSRFSGSGSGTEFTLTISSLQPDDFAIYYCQQFNRFITFGQGTRLEIK
